The values below come from patent publication US20140212423A1 (AbbVie / Abbott, published 2014).

Test [1] addresses Repulsive guidance molecule A. As to the kind of experiment: cell-based or functional assay.
Test [2] concerns the target T1, mouse Transferrin Receptor overexpressed on Hek 293 cells (mouse, UniProt Q62351 1-763).
T1 construct: whole, on cells; also called Hek293/mTfR; 293/mTFR
As to the kind of experiment: 293/mTFR cell-based assay. As for the experimental part: (§1) Meso-scale Discovery (MSD) Electrochemiluminescesnce (ECL) assays to screen for antibodies or DVDs that bind a desired target antigen expressed on the cell surface were performed as follows: Hek 293 cells overexpressing mouse Transferin Receptor were added onto MSD 96-well plates (MSD Cat# L11 XB-3, lot#2290-EA) which were blocked using blocking buffer (30% FBS Serum (Hyclone) in PBS) at 37° C. for 1 hr. After incubating at RT for 30 min with mild agitation, plates were washed with DPBS 3 times and Abs/DVDs (10,000 ng/ml) were added. After incubating for 1 hr at RT, plates were washed 3 times with DPBS and 25 ul of Goat anti human Sulfo TAG (MSD Cat# R32AC-, Lot# W001162) at 1 μg/ml is added. Following a 1 h incubation at RT for 1 hr, plates are washed and MSD read buffer is added before reading on MSD SECTOR Imager 6000. EC50 values are obtained using Xlfit4 software package

Test [3] concerns the target T1, mouse Transferrin Receptor …. The experiment in a line: cell-based MSD-ECL binding on Hek293 cells overexpressing mouse TfR. As for the experimental part:
as §1

In a further test the target is T2, rmTfR (123-763) (mouse, UniProt Q62351 123-763).
T2 construct: range 123-763; also called recombinant mouse transferrin receptor 123-763
T2 sequence (Q62351 123-763): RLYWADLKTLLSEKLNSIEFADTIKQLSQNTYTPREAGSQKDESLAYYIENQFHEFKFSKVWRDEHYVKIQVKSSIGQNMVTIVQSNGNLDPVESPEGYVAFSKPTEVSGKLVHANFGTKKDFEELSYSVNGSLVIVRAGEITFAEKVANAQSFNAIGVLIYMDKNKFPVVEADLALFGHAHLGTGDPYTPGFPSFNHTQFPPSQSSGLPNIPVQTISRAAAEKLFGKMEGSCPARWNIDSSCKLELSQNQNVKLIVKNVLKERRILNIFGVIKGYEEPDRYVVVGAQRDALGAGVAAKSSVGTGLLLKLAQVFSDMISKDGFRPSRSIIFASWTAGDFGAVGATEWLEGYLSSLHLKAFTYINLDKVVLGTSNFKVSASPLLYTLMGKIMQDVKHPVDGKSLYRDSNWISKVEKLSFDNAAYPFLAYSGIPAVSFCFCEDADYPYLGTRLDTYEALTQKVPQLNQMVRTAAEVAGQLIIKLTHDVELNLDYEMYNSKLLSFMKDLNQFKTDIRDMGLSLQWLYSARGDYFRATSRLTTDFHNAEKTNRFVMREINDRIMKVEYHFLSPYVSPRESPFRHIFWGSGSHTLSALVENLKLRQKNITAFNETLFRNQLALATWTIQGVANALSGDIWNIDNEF
As to the kind of experiment: Biacore SPR, DVD-Ig captured via anti-human Fc, rmTfR (123-763) in solution. As for the experimental part:
The BIACORE assay (Biacore, Inc, Piscataway, N.J.) was used to determine the affinity of antibodies or DVD-Ig™ with kinetic measurements of on-rate and off-rate constants. Binding of antibodies or DVD-Ig™ to a target antigen (for example, a purified recombinant target antigen) was determined by surface plasmon resonance-based measurements with a Biacore® 1000 or 3000 instrument (Biacore® AB, Uppsala, Sweden) using running HBS-EP (10 mM HEPES [pH 7.4], 150 mM NaCl, 3 mM EDTA, and 0.005% surfactant P20) at 25° C. All chemicals were obtained from Biacore® AB (Uppsala, Sweden) or otherwise from a different source as described in the text. For example, approximately 5000 RU of goat anti-human IgG, (Fcγ), fragment specific polyclonal antibody (Pierce Biotechnology Inc, Rockford, Ill.) diluted in 10 mM sodium acetate (pH 4.5) was directly immobilized across a CM5 research grade biosensor chip using a standard amine coupling kit according to manufacturer's instructions and procedures at 25 μg/ml. Unreacted moieties on the biosensor surface are blocked with ethanolamine. Modified carboxymethyl dextran surface in flowcell 2 and 4 is used as a reaction surface. Unmodified carboxymethyl dextran without goat anti-human IgG in flow cell 1 and 3 is used as the reference surface. For kinetic analysis, rate equations derived from the 1:1 Langmuir binding model were fitted simultaneously to association and dissociation phases of all eight injections (using global fit analysis) with the use of Biaevaluation 4.0.1 software. Purified antibodies or DVD-Ig™ were diluted in HEPES-buffered saline for capture across goat anti-human IgG specific reaction surfaces. Antibodies or DVD-Ig™ to be captured as a ligand (25 μg/ml) were injected over reaction matrices at a flow rate of 5 μl/min. The association and dissociation rate constants, kon (M⁻¹s⁻¹) and koff (s⁻¹) are determined under a continuous flow rate of 25 μl/min. Rate constants are derived by making kinetic binding measurements at different antigen concentrations ranging from 10-200 nM. The equilibrium dissociation constant (M) of the reaction between antibodies or DVD-Ig™s and the target antigen is then calculated from the kinetic rate constants by the following formula: KD=koff/kon. Binding is recorded as a function of time and kinetic rate constants are calculated.
In general terms: In SPR one partner is held on a chip, and binding of the other changes the refractive index at the surface.

T1 sequence (Q62351 whole entry): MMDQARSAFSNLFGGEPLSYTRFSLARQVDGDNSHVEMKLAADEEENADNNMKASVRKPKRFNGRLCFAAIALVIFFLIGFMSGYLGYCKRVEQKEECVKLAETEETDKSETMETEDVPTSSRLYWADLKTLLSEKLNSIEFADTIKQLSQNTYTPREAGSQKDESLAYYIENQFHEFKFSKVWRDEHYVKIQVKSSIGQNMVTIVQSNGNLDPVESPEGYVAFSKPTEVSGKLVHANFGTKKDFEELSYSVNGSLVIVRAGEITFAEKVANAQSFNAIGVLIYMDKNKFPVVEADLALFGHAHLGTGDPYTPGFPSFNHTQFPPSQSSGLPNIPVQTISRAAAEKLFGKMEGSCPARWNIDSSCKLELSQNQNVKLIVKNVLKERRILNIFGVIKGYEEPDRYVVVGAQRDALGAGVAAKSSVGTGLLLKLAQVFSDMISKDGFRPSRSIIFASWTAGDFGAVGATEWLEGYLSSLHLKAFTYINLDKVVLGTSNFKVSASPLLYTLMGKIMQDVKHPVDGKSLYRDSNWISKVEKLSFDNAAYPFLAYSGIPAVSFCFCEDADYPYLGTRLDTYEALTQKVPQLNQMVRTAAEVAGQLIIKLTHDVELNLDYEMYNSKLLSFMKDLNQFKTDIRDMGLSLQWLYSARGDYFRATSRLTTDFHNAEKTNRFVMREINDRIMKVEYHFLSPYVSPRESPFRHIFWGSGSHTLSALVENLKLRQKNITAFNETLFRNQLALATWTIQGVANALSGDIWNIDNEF

B1: RGMA(AE12-1)-SS-TfR(AB402) (bispecific antibody)
VH: EVQLVQSGAEVKKPGASVKVSCKASGYTFTSHGISWVRQAPGQGLDWMGWISPYSGNTNYAQKLQGRVTMTTDTSTSTAYMELSSLRSEDTAVYYCARVGSGPYYYMDVWGQGTLVTVSSASTKGPEVQLVESGGGLVQPGGSLRLSCAASGFTFSNYGMHWIRQAPGKGLEWIAMIYYDSSKMNYADTVKGRFTISRDNAKNSLYLQMNSLRAEDTAVYYCAVPTSHYVVDVWGQGTTVTVSS
VL: QSALTQPRSVSGSPGQSVTISCTGTSSSVGDSIYVSWYQQHPGKAPKLMLYDVTKRPSGVPDRFSGSKSGNTASLTISGLQAEDEADYYCCSYAGTDTLFGGGTKVTVLGQPKAAPAIQMTQSPSSLSASVGDRVTITCQASQDIGNWLAWYQQKPGKSPKLLIYGATSLADGVPSRFSGSRSGTDFTLTISSLQPEDFATYYCLQAYNTPWTFGGGTKVEIKR
notes: DVD-Ig composed from its name; constant regions not assigned; not shown: short light-chain linker (code S) after a lambda VL
As to B1, the “BMP Assay (EC50, nM)” value in test [1] is 0.436 nM. This molecule also came in with an EC50 in test [2] of 30.9 nM.

B2: RGMA(AE12-1)-SS-TfR(AB403) (bispecific antibody)
VH: EVQLVQSGAEVKKPGASVKVSCKASGYTFTSHGISWVRQAPGQGLDWMGWISPYSGNTNYAQKLQGRVTMTTDTSTSTAYMELSSLRSEDTAVYYCARVGSGPYYYMDVWGQGTLVTVSSASTKGPEVQLVESGGGLVQPGGSLRLSCAASGFTFSNYGMHWIRQAPGKGLEWIAMIYYDSSKMNYADTVKGRFTISRDNAKNSLYLQMNSLRAEDTAVYYCAVPTSHYVVDVWGQGTTVTVSS
VL: QSALTQPRSVSGSPGQSVTISCTGTSSSVGDSIYVSWYQQHPGKAPKLMLYDVTKRPSGVPDRFSGSKSGNTASLTISGLQAEDEADYYCCSYAGTDTLFGGGTKVTVLGQPKAAPEIVMTQSPATLSVSPGERATLSCQASQDIGNWLAWYQQKPGQSPRLLIYGATSLADGVPARFSGSRSGTEFTLTISSLQSEDFAVYYCLQAYNTPWTFGGGTKVEIKR
notes: as for B1
As to B2, the “BMP Assay (EC50, nM)” value in test [1] turned out to be 1.18 nM. In test [2], this molecule registered an EC50 of 71 nM.

B3: DVD2358 (bispecific antibody)
VH: EVQLVESGGGLVQPGGSLRLSCAASGFTFSNYGMHWIRQAPGKGLEWIAMIYYDSSKMNYADTVKGRFTISRDNAKNSLYLQMNSLRAEDTAVYYCAVPTSHYVVDVWGQGTTVTVSSASTKGPEVQLLESGGGLVQPGGSLRLSCAASGFTFSNYGMSWVRQAPGKGLEWVASIRSGGGRTYYSDNVKGRFTISRDNSKNTLYLQMNSLRAEDTAVYYCVRYDHYSGSSDYWGQGTLVTVSS
VL: AIQMTQSPSSLSASVGDRVTITCQASQDIGNWLAWYQQKPGKSPKLLIYGATSLADGVPSRFSGSRSGTDFTLTISSLQPEDFATYYCLQAYNTPWTFGGGTKVEIKRTVAAPDVVMTQSPLSLPVTPGEPASISCKSSQSLLDSDGKTYLNWLLQKPGQSPQRLIYLVSKLDSGVPDRFSGSGSGTDFTLKISRVEAEDVGVYYCWQGTHFPRTFGQGTKVEIKR
notes: DVD-Ig, outer AB402 (TfR), inner AB043 (APP), HG-short/LK-short; dual variable regions only; constant regions not assigned
In turn, B3 gave an EC50 in test [3] of 0.1 nM. In the test with rmTfR (123-763), this molecule gave a Kd of 1.3 nM, a koff of 4.06e-05 s⁻¹ and a kon of 31300 M⁻¹ s⁻¹.

B4: DVD2360 (bispecific antibody)
VH: EVQLVESGGGLVQPGGSLRLSCAASGFTFSNYGMHWIRQAPGKGLEWIAMIYYDSSKMNYADTVKGRFTISRDNAKNSLYLQMNSLRAEDTAVYYCAVPTSHYVVDVWGQGTTVTVSSASTKGPEVQLLESGGGLVQPGGSLRLSCAASGFTFSNYGMSWVRQAPGKGLEWVASIRSGGGRTYYSDNVKGRFTISRDNSKNTLYLQMNSLRAEDTAVYYCVRYDHYSGSSDYWGQGTLVTVSS
VL: EIVMTQSPATLSVSPGERATLSCQASQDIGNWLAWYQQKPGQSPRLLIYGATSLADGVPARFSGSRSGTEFTLTISSLQSEDFAVYYCLQAYNTPWTFGGGTKVEIKRTVAAPDVVMTQSPLSLPVTPGEPASISCKSSQSLLDSDGKTYLNWLLQKPGQSPQRLIYLVSKLDSGVPDRFSGSGSGTDFTLKISRVEAEDVGVYYCWQGTHFPRTFGQGTKVEIKR
notes: DVD-Ig, outer AB403 (TfR), inner AB043 (APP), HG-short/LK-short; dual variable regions only; constant regions not assigned
With B4, in test [3], the EC50 came out at 0.15 nM. Further, in the test with rmTfR (123-763), binding was characterised by a dissociation constant (Kd) of 1.7 nM, the koff was found to be 4.8e-05 s⁻¹ and the kon worked out at 28000 M⁻¹ s⁻¹.

B5: RGMA(AE12-1)-GS-TfR(AB402) (bispecific antibody)
VH: EVQLVQSGAEVKKPGASVKVSCKASGYTFTSHGISWVRQAPGQGLDWMGWISPYSGNTNYAQKLQGRVTMTTDTSTSTAYMELSSLRSEDTAVYYCARVGSGPYYYMDVWGQGTLVTVSSGGGGSGGGGSEVQLVESGGGLVQPGGSLRLSCAASGFTFSNYGMHWIRQAPGKGLEWIAMIYYDSSKMNYADTVKGRFTISRDNAKNSLYLQMNSLRAEDTAVYYCAVPTSHYVVDVWGQGTTVTVSS
VL: QSALTQPRSVSGSPGQSVTISCTGTSSSVGDSIYVSWYQQHPGKAPKLMLYDVTKRPSGVPDRFSGSKSGNTASLTISGLQAEDEADYYCCSYAGTDTLFGGGTKVTVLGGGSGGGGSGAIQMTQSPSSLSASVGDRVTITCQASQDIGNWLAWYQQKPGKSPKLLIYGATSLADGVPSRFSGSRSGTDFTLTISSLQPEDFATYYCLQAYNTPWTFGGGTKVEIKR
notes: DVD-Ig composed from its name; constant regions not assigned
For B5, the “BMP Assay (EC50, nM)” value in test [1] stood at 0.014 nM. For the same molecule, the EC50 in test [2] came out at 5.36 nM.

B6: RGMA(AE12-1)-GS-TfR(AB403) (bispecific antibody)
VH: EVQLVQSGAEVKKPGASVKVSCKASGYTFTSHGISWVRQAPGQGLDWMGWISPYSGNTNYAQKLQGRVTMTTDTSTSTAYMELSSLRSEDTAVYYCARVGSGPYYYMDVWGQGTLVTVSSGGGGSGGGGSEVQLVESGGGLVQPGGSLRLSCAASGFTFSNYGMHWIRQAPGKGLEWIAMIYYDSSKMNYADTVKGRFTISRDNAKNSLYLQMNSLRAEDTAVYYCAVPTSHYVVDVWGQGTTVTVSS
VL: QSALTQPRSVSGSPGQSVTISCTGTSSSVGDSIYVSWYQQHPGKAPKLMLYDVTKRPSGVPDRFSGSKSGNTASLTISGLQAEDEADYYCCSYAGTDTLFGGGTKVTVLGGGSGGGGSGEIVMTQSPATLSVSPGERATLSCQASQDIGNWLAWYQQKPGQSPRLLIYGATSLADGVPARFSGSRSGTEFTLTISSLQSEDFAVYYCLQAYNTPWTFGGGTKVEIKR
notes: DVD-Ig composed from its name; constant regions not assigned; also called RGMA (AE12-1)-GS-AB403 DVD-Ig
For the molecule B6, in test [1], the “BMP Assay (EC50, nM)” value is under 0.025 nM. The molecule further gave an EC50 in test [2] of 4.3 nM.

B7: DVD2365 (bispecific antibody)
VH: QVQLVQSGAEVKKPGASVKVSCKASGFTFSNYGMHWIRQAPGQGLEWIAMIYYDSSKMNYADTVKGRFTITRDNSTNTLYMELSSLRSEDTAVYYCAVPTSHYVVDVWGQGTTVTVSSASTKGPEVQLLESGGGLVQPGGSLRLSCAASGFTFSNYGMSWVRQAPGKGLEWVASIRSGGGRTYYSDNVKGRFTISRDNSKNTLYLQMNSLRAEDTAVYYCVRYDHYSGSSDYWGQGTLVTVSS
VL: EIVMTQSPATLSVSPGERATLSCQASQDIGNWLAWYQQKPGQSPRLLIYGATSLADGVPARFSGSRSGTEFTLTISSLQSEDFAVYYCLQAYNTPWTFGGGTKVEIKRTVAAPDVVMTQSPLSLPVTPGEPASISCKSSQSLLDSDGKTYLNWLLQKPGQSPQRLIYLVSKLDSGVPDRFSGSGSGTDFTLKISRVEAEDVGVYYCWQGTHFPRTFGQGTKVEIKR
notes: DVD-Ig, outer AB405 (TfR), inner AB043 (APP), HG-short/LK-short; dual variable regions only; constant regions not assigned
In turn, B7 registered an EC50 in test [3] of 3.2 nM. Also, in the test with rmTfR (123-763), the Kd came to 78 nM, the koff is 0.000771 s⁻¹ and the kon is 9870 M⁻¹ s⁻¹.

B8: TfR(AB404)-LL-RGMA(AE12-1) (bispecific antibody)
chain 1: QVQLVQSGAEVKKPGASVKVSCKASGFTFSNYGMHWIRQAPGQGLEWIAMIYYDSSKMNYADTVKGRFTITRDNSTNTLYMELSSLRSEDTAVYYCAVPTSHYVVDVWGQGTTVTVSSASTKGPSVFPLAPEVQLVQSGAEVKKPGASVKVSCKASGYTFTSHGISWVRQAPGQGLDWMGWISPYSGNTNYAQKLQGRVTMTTDTSTSTAYMELSSLRSEDTAVYYCARVGSGPYYYMDVWGQGTLVTVSS
chain 2: AIQMTQSPSSLSASVGDRVTITCQASQDIGNWLAWYQQKPGKSPKLLIYGATSLADGVPSRFSGSRSGTDFTLTISSLQPEDFATYYCLQAYNTPWTFGGGTKVEIKRTVAAPSVFIFPPQSALTQPRSVSGSPGQSVTISCTGTSSSVGDSIYVSWYQQHPGKAPKLMLYDVTKRPSGVPDRFSGSKSGNTASLTISGLQAEDEADYYCCSYAGTDTLFGGGTKVTVLG
Consider B8, for which, in test [1], the “BMP Assay (EC50, nM)” value was found to be 13.2 nM. The same molecule yielded an EC50 in test [2] of 3.61 nM.

As a reminder, the EC50 is the midpoint of the concentration-response curve. As usually defined, the Kd is a measure of binding affinity in units of concentration. What is called koff is the first-order rate constant of dissociation. In general, kon refers to the rate constant with which the complex forms. High values mean fast association, low ones slow association.
